We go through 5 molecules from patent publication US20200181247A1 (published 2020).

For assay [1], the target named is T1, commercially-prepared stable A-beta42 Oligomers (SynAging SAS) (human).
T1 construct: Bought oligomer preparation; also called AbO (SynAging); SynAging AbO
Kind of assay: ProteOn biosensor; antibody captured or amine-coupled on GLM chip, AbO dilutions 1 uM to 12.3 nM. On the procedure:
AbO 3 fold-dilutions were used: 1 uM, 0.33 uM, 0.11 uM, 37 nM, 12.3 nM. Assay buffer was PBS-E+Tween 20+2 mg/ml BSA.

Assay [2] addresses T2, cyclo(CGHHQKG) (SEQ ID NO: 12) conjugated to BSA (also: conjugated to BSA).
T2 construct: Synthetic cyclic peptide (CPC Scientific) holding HHQK of A-beta; also called Cyclic Peptide; cyclopeptide
T2 peptide: cyclo(CGHHQKG)
Kind of assay: ProteOn biosensor; antibody amine-coupled to GLH chip, Cyclo-BSA dilutions 9 nM to 111 pM. On the procedure: Cyclo-BSA 3-fold dilutions were used from 9 nM to 111 pM. Assay buffer was PBS-E+0.05% Tween+10 mg/ml BSA.

The target of assay [3] is T2, cyclo(CGHHQKG) (SEQ ID NO: 12) …. The assay can be described thus: single cycle Biacore analysis. On the procedure: The fully humanized antibodies were prepared using Composite Human Antibody™ technology. The humanized variable region genes were cloned into vectors encoding a human IgG4 (S241P hinge variant) heavy chain constant domain and a human kappa light chain constant domain. Chimeric and humanized antibodies were transiently expressed in CHO cells and Protein A purified and tested.
Binding was determined using single cycle Biacore analysis. Antibodies were analysed in two separate experiments.
For orientation: SPR reads the build-up and loss of mass on a sensor chip optically.

Assay [4] deals with T3, A-beta42 Oligomer (synthetic, prepared in F12 medium) (human).
T3 construct: Non-covalent oligomer of recombinant A-beta42 (California Peptide), 100 µM in F12 medium, 24 h to 7 days at 4 °C; also called Ab42 Oligomer; A-beta 1-42 oligomers
T3 sequence (peptide, as listed by the source): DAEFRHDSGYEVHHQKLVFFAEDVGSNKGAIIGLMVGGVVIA
The assay can be described thus: SPR; purified antibody immobilized, A-beta preparation flowed over.

The next assay addresses T4, A-beta42 Monomer (human).
T4 construct: Recombinant A-beta42 peptide (California Peptide), HFIP-treated, in DMSO then water, used at once; also called Ab42 Monomer; A-beta 1-42 monomer
The description is as above.

The target of assay [5] is T2, cyclo(CGHHQKG) (SEQ ID NO: 12) …. The assay can be described thus: SPR; immobilized antibody pre-exposed to cyclic peptide.

T1 sequence (peptide, as listed by the source): as above
T4 sequence (peptide, as listed by the source): as above

B1: Recombinant 301-17 IgG2a (antibody)
heavy: QVQLQQPGAELVKPGASVKMSCKASGYSFTSYWINWVKQRPGQGLEWIGDVHPGRGVSTYNAKFKSKATLTLDTSSSTAYMQLSSLTSEDSAVYYCSRSHGNTYWFFDVWGAGTTVTVSSAKTTAPSVYPLAPVCGDTTGSSVTLGCLVKGYFPEPVTLTWNSGSLSSGVHTFPAVLQSDLYTLSSSVTVTSSTWPSQSITCNVAHPASSTKVDKKIEPRGPTIKPCPPCKCPAPNLLGGPSVFIFPPKIKDVLMISLSPIVTCVVVDVSEDDPDVQISWFVNNVEVHTAQTQTHREDYNSTLRVVSALPIQHQDWMSGKEFKCKVNNKDLPAPIERTISKPKGSVRAPQVYVLPPPEEEMTKKQVTLTCMVTDFMPEDIYVEWTNNGKTELNYKNTEPVLDSDGSYFMYSKLRVEKKNWVERNSYSCSVVHEGLHNHHTTKSFSRTPGK
light: DVLMTQTPLSLPVSLGDQASISCRSSQSIVHSNGNTYLEWYLQKPGQSPKLLIYKVSNRFSGVPDRFSGSGSGTDFTLKISRVEAEDLGVYYCFQGSHVPFTFGSGTKLEIKRADAAPTVSIFPPSSEQLTSGGASVVCFLNNFYPKDINVKWKIDGSERQNGVLNSWTDQDSKDSTYSMSSTLTLTKDEYERHNSYTCEATHKTSTSPIVKSFNRNEC
What is called Kd is the concentration at which binding is half-saturated. A low value points to a tighter complex. B1: the Kd in assay [1] is 16.2 to 19.5 nM; in assay [2], roughly 0.017 nM.

B2: 301-17 (hybridoma-purified 301-17 IgG3) (antibody, V domains shown)
VH: QVQLQQPGAELVKPGASVKMSCKASGYSFTSYWINWVKQRPGQGLEWIGDVHPGRGVSTYNAKFKSKATLTLDTSSSTAYMQLSSLTSEDSAVYYCSRSHGNTYWFFDVWGAGTTVTVSSATTTAPS
VL: DVLMTQTPLSLPVSLGDQASISCRSSQSIVHSNGNTYLEWYLQKPGQSPKLLIYKVSNRFSGVPDRFSGSGSGTDFTLKISRVEAEDLGVYYCFQGSHVPFTFGSGTKLEIKRADA
notes: Mouse monoclonal from hybridoma, IgG3 / kappa; also called mu301-17
For B2, the Kd in assay [1] was roughly 26.9 nM; in assay [3], 0.4 nM. For the same molecule, the “binding response (RU)” value in assay [4] is 148 RU; with A-beta42 Monomer, -27.1 RU.

B3: 301-17 chimeric antibody (VH0 Vk0, human IgG4) (antibody, V domains shown)
VH: QVQLQQPGAELVKPGASVKMSCKASGYSFTSYWINWVKQRPGQGLEWIGDVHPGRGVSTYNAKFKSKATLTLDTSSSTAYMQLSSLTSEDSAVYYCSRSHGNTYWFFDVWGAGTTVTVSS
VL: DVLMTQTPLSLPVSLGDQASISCRSSQSIVHSNGNTYLEWYLQKPGQSPKLLIYKVSNRFSGVPDRFSGSGSGTDFTLKISRVEAEDLGVYYCFQGSHVPFTFGSGTKLEIK
notes: expressed in CHO cells; not expressly tied to the chimeric one; also called V0H0 and V0k0
For B3, in assay [3], the Kd is roughly 0.02 nM.

B4: Humanized antibody of 301-17 (VH2 Vk5), IgG4 isotype (S241P hinge mutation) (antibody, V domains shown)
VH: QVQLVQSGAEVKKPGASVKMSCKASGYSFTSYWINWVKQRPGQGLEWIGDVHPGRGVSTYNAKFKSRATLTLDTSISTAYMELSSLRSEDTAVYYCSRSHGNTYWFFDVWGQGTTVTVSS
VL: DVLMTQSPLSLPVTLGQPASISCRSSQSIVHSNGNTYLEWYQQRPGQSPRLLIYKVSNRFSGVPDRFSGSGSGTDFTLKISRVEAEDVGVYYCFQGSHVPFTFGQGTKLEIKR
notes: also called hu301-17
Consider B4, for which the binding result in assay [5] is “binds”.

B5: 301-11 (antibody, V domains shown)
VH: EVQLVESGGGLVKPGGSLKLSCAASGFTFSDYYMYWVRQTPEKRLEWVATISDGGSYTSYPDSVKGRFTISRDNAKNNLYLQMSSLRSEDTAMYYCARDYYGSSSYTSGFAYWGQGTLVTVSA
VL: DIVMSQSPSSLAVSTGEKVTMSCKSSQSLLNSRTRKNYLAWYQQKPGQSPKLLIYWASTRESGVPDRFTGSGSGTDFTLTISSVQAEDLAVYYCKQSYNLYTFGGGTKLEIK
notes: Mouse monoclonal from hybridoma, IgG3 / kappa, raised against cyclo(CGHHQKG)-KLH
On to B5, for which the “binding response (RU)” value in assay [4] was -2.8 RU; with A-beta42 Monomer, -14.1 RU.
